Data set [1] addresses T1, RC3H1-N2 (Roquin-1, RING, ROQ and CCCH zinc finger domains) (Homo sapiens, UniProt Q5TC82 Q5TC82:2-452).
T1 sequence: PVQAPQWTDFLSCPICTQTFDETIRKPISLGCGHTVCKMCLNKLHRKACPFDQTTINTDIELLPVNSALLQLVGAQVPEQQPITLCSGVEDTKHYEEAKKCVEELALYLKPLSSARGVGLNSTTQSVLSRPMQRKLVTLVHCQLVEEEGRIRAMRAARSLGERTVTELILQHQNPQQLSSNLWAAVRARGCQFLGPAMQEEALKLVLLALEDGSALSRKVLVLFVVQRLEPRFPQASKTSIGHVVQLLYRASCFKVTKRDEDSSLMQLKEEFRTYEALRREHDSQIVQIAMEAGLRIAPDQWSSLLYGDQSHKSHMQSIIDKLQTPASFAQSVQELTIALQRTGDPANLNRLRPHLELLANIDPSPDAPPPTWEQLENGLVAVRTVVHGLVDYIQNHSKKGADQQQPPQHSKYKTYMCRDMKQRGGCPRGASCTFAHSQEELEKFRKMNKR
As to the kind of experiment: EMSA; same buffer; higher affinity than RC3H1-N1. The note with it: tags: N-terminal His7 cleaved with TEV protease, E. coli Rosetta 2 (DE3), pQLinkH; label: 5'-32P; hairpin. The protocol:
(§1) The EMSA was performed as described before⁴⁹ with the following modifications: RNA was prepared by 5′ end-labeling of commercially synthesized RNA oligonucleotides with [γ-³²P]-ATP using T4 polynucleotide kinase (NEB). Labeled RNA was gel purified and eluted and adjusted with H₂O to 1 pmol/μl. 50 fmol of labelled RNA was used per 20 μl reaction. Prior to binding reactions, a master mix containing labelled RNA, lx binding buffer (20 mM Tris-HCl (pH 7.5), 50 mM KCl, 5 mM MgCl₂, 20 μM ZnSO₄, 10% glycerol), 2 mM DTT, 0.05 mg/ml BSA, and 5 μg/ml heparin was heated at 90° C. for 1 min and gradually cooled down to room temperature. In parallel, a dilution series of 10× protein stocks was prepared in 1× protein dilution buffer (1× binding buffer, 5 μg/ml heparin). For each binding reaction, 2 μl of the 10× protein stock was added to 18 μl of the mastermix at room temperature for 2 h. After addition of 4 μl 6× loading buffer (30% glycerol, bromphenol blue, xylene cyanol), RNP complexes were resolved by nondenaturing PAGE (6% polyacrylamide, 0.5×TBE, 5% glycerol) in ice-cold 0.5×TBE buffer containing 20 μM ZnSO₄ at 100 V for 40 min. The protein-bound RNA and the free RNA were quantified using a phosphorimager.

The target of data set [2] is T1, RC3H1-N2 (Roquin-1, RING, ROQ and CCCH …). As to the kind of experiment: EMSA; same buffer; similar to RC3H1-N1. Conditions: tags: N-terminal His7 cleaved with TEV protease, E. coli Rosetta 2 (DE3), pQLinkH; label: 5'-32P; hairpin. The protocol:
as §1
On the technique in general: Mobility shift assays separate free from complexed probe on a gel.

Data set [3] concerns the target T2, RC3H1-N1 (Roquin-1, RING and ROQ domains) (Homo sapiens, UniProt Q5TC82 Q5TC82:2-399).
T2 sequence: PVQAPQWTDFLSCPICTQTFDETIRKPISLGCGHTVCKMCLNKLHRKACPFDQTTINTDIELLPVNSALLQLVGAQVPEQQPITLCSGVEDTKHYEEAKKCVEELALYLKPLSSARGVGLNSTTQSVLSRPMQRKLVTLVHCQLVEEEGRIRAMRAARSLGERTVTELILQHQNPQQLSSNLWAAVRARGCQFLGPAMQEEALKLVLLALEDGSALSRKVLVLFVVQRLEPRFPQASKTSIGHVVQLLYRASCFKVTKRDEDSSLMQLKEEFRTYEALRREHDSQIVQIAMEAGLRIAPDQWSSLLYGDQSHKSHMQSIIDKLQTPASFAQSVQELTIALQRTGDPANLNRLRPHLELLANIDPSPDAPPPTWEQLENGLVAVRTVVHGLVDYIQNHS
Put plainly: EMSA; 20 mM Tris-HCl pH 7.5, 50 mM KCl, 5 mM MgCl2, 20 uM ZnSO4, 5 ug/ml heparin, room temperature; binding independent of CCCH zinc finger. Conditions: tags: N-terminal His7 cleaved with TEV protease, E. coli Rosetta 2 (DE3), pQLinkH; label: 5'-32P; hairpin. On the procedure:
as §1

Data set [4] has as its target T1, RC3H1-N2 (Roquin-1, RING, ROQ and CCCH …). As to the kind of experiment: EMSA; same buffer; higher affinity than for the 23 nt hairpin; reduced by antisense LNA SEQ 6 (FIG. 5c). Conditions: tags: N-terminal His7 cleaved with TEV protease, E. coli Rosetta 2 (DE3), pQLinkH; label: 5'-32P. The protocol: as §1

From patent US20170298359, “OLIGONUCLEOTIDE TARGETED TO THE A20-THREE PRIME UNTRANSLATED REGION” (Max-Delbrück-Centrum für Molekulare Medizin in …, published 2017) come the findings set out here.

B1: A20 23 nt hairpin (ssRNA)
RNA: ACCCUUACAUUAUGUAUGAGGGA
Consider B1, for which the binding result in data set [1] is on record as “binds”.

B2: ICOS CDE-like stem-loop 13 nt (ssRNA)
RNA: AUUUCUGUGAAAU
Turning to B2, the binding result in data set [2] and in data set [3] was “binds” throughout.

B3: A20 37 nt (ssRNA)
RNA: AUAUAUAAUAUACCCUUACAUUAUGUAUGAGGGAUUU
Turning to B3, in data set [4], the binding result is on record as “binds”.
